B1: 9a_26 5mC (dsDNA)
DNA 1: GGCCAGCCAGTCAGCCGAAGGCTCCATGCTGCTCCCCGCCGCCGGC
DNA 2: GCCGGCGGCGGGGAGCAGCATGGAGCCTTCGGCTGACTGGCTGGCC
modifications: 5mC at strand 1 nt 16 (site position 5, T = 0)
B2: 9a_26 C (dsDNA)
DNA 1: B1 DNA 1
DNA 2: B1 DNA 2

Key:
[1] = target: T1, GFP-TALE_9a_26 WT (Xanthomonas axonopodis scaffold …); experiment: EMSA; 5mC vs C DNA; EMSA: 20 mM Tris pH 8, 50 mM NaCl, 5 mM MgCl2, 5% glycerol; 0.1 pmol TALE + 0.5 pmol duplex in 10 uL; RT 30 min then ice 30 min; gel 0.5x TAE 4 C; GFP readout; details: protein: recombinant; tags: N-terminal GFP; C-terminal His6; blunt
[2] = target: T1, GFP-TALE_9a_26 WT; experiment: EMSA; EMSA: 20 mM Tris pH 8, 50 mM NaCl, 5 mM MgCl2, 5% glycerol; 0.1 pmol TALE + 0.5 pmol duplex in 10 uL; RT 30 min then ice 30 min; gel 0.5x TAE 4 C; GFP readout; details: protein: recombinant; tags: N-terminal GFP; C-terminal His6; blunt

| Binder | binding signal [1] | binding result [2] |
| --- | --- | --- |
| B1 | 2 fold C over 5mC selectivity |  |
| B2 |  | binds |

From paper PMC5678105, “Engineering DNA Backbone Interactions Results in TALE Scaffolds with Enhanced 5-Methylcytosine Selectivity”
